Reference: patent US10314894B2, “Treatment of cardio-renal disease using PCSK6” (THE CLEVELAND CLINIC FOUNDATION, priority 2014, dated 2019)
“Also recorded” adds a separate entry of the source.

Target: T1, corin WT (Homo sapiens, UniProt Q9Y5Q5)
T1 construct: expressed in transfected cells; host or cells: HEK293
T1 sequence (Q9Y5Q5 1-1042): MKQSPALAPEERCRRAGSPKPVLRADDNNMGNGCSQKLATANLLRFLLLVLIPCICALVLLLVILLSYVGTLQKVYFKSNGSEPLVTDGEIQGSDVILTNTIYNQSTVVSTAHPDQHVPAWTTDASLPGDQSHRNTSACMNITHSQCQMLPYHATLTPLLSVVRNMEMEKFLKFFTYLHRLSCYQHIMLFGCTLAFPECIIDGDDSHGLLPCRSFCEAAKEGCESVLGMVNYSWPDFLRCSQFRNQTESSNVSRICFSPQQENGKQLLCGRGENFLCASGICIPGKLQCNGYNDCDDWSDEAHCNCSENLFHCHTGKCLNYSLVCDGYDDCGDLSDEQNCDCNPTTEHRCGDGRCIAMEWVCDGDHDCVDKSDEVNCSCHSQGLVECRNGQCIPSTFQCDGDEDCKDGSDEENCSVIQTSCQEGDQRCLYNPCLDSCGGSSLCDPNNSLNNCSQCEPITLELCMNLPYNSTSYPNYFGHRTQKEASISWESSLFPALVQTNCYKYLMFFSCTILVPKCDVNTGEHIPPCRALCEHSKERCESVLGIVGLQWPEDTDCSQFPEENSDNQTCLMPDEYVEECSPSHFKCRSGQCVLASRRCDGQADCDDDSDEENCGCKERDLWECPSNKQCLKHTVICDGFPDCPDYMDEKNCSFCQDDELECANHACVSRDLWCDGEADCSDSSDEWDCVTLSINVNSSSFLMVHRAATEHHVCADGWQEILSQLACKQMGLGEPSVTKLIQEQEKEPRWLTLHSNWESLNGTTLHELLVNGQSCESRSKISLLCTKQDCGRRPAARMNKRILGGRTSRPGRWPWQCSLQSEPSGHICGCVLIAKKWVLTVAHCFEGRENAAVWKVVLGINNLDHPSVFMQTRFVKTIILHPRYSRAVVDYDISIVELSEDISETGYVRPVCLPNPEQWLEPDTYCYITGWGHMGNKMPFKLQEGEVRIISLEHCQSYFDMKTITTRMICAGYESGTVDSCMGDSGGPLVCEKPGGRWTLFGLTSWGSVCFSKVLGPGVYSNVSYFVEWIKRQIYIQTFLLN
Test: Corin activation by purified PCSK6 on HEK293 cells, corin WT
Assay type: cell-based
Details: increasing concentrations, 2 h, 37° C.
Description: HEK293 and HL-1 cells expressing recombinant corin in 6-well plates were incubated with 1.5 mL (200 μM) of membrane impermeable Sulfo-NHS-SS-biotin for 5 min. Qi et al., J Biol Chem 286, 20963-20969 (2011). A quenching solution was added to the wells and incubated on ice for 10 min. Cells were lysed in the lysis buffer. Labeled proteins were isolated with avidin-coupled agarose beads and analyzed by Western blotting.
Stable HEK293 cells were established to produce human PCSK6 with a C-terminal flag tag. The cells were cultured in DMEM with 10% FBS and 600 μg/mL G418. At confluency, the cells were washed with PBS and cultured with Reduced-Serum Medium. After 72 h, the conditioned medium was collected, centrifuged (10 min at 17,000 g) to remove cell debris, and concentrated to ⅕ of the original volume using a Centrifugal filter unit at 4° C. The concentrated medium was incubated with anti-flag M2 affinity bead slurry in a volume ratio of 25:1 on a rotator at 4° C. for 2 h. […] After centrifugation, the supernatant containing purified PCSK6 was collected, and analyzed by SDS-PAGE followed by silver staining and Western blotting.
Stable HEK293 cells expressing human corin were cultured in 6-well plates in DMEM with 10% FBS and 2 μM monensin. […] After 2 h, cell surface proteins were labeled and corin protein was analyzed by Western blotting.

B1: proprotein convertase subtilisin/kexin-6 (protein, listed as Homo sapiens)
chain: MPPRAPPAPGPRPPPRAAAATDTAAGAGGAGGAGGAGGPGFRPLAPRPWRWLLLLALPAACSAPPPRPVYTNHWAVQVLGGPAEADRVAAAHGYLNLGQIGNLEDYYHFYHSKTFKRSTLSSRGPHTFLRMDPQVKWLQQQEVKRRVKRQVRSDPQALYFNDPIWSNMWYLHCGDKNSRCRSEMNVQAAWKRGYTGKNVVVTILDDGIERNHPDLAPNYDSYASYDVNGNDYDPSPRYDASNENKHGTRCAGEVAASANNSYCIVGIAYNAKIGGIRMLDGDVTDVVEAKSLGIRPNYIDIYSASWGPDDDGKTVDGPGRLAKQAFEYGIKKGRQGLGSIFVWASGNGGREGDYCSCDGYTNSIYTISVSSATENGYKPWYLEECASTLATTYSSGAFYERKIVTTDLRQRCTDGHTGTSVSAPMVAGIIALALEANSQLTWRDVQHLLVKTSRPAHLKASDWKVNGAGHKVSHFYGFGLVDAEALVVEAKKWTAVPSQHMCVAASDKRPRSIPLVQVLRTTALTSACAEHSDQRVVYLEHVVVRTSISHPRRGDLQIYLVSPSGTKSQLLAKRLLDLSNEGFTNWEFMTVHCWGEKAEGQWTLEIQDLPSQVRNPEKQGKLKEWSLILYGTAEHPYHTFSAHQSRSRMLELSAPELEPPKAALSPSQVEVPEDEEDYTAQSTPGSANILQTSVCHPECGDKGCDGPNADQCLNCVHFSLGSVKTSRKCVSVCPLGYFGDTAARRCRRCHKGCETCSSRAATQCLSCRRGFYHHQEMNTCVTLCPAGFYADESQKNCLKCHPSCKKCVDEPEKCTVCKEGFSLARGSCIPDCEPGTYFDSELIRCGECHHTCGTCVGPGREECIHCAKNFHFHDWKCVPACGEGFYPEEMPGLPHKVCRRCDENCLSCAGSSRNCSRCKTGFTQLGTSCITNHTCSNADETFCEMVKSNRLCERKLFIQFCCRTCLLAG
modifications: C-terminal FLAG tag
For B1, the “activation of corin on the cell surface by purified recombinant PCSK6” value was “activated corin on the surface of HEK293 cells in a dose-depending manner; also recorded: activated corin WT”.
